Measurements: patent US20250066503A1, “CELL INJURY INDUCING THERAPEUTIC DRUG FOR USE IN CANCER THERAPY” (CHUGAI SEIYAKU KABUSHIKI KAISHA, priority 2016, published 2025)
Positions count from the first letter of the chain named.

Legend:
[1] = biological target: T1, soluble human CD3 epsilon chain (human, UniProt P07766 23-126); assay: SPR, human CD3 on the chip
T1 construct: also called CD3ε
Protocol: (§1) The activity to bind human CD3 when using hCE115HA (SEQ ID NO: 52) as the H chain variable region and L0000 (SEQ ID NO: 53) as the L-chain variable region was evaluated. This was performed using the molecular form of a single-arm antibody having a single Fab at the Fc region of a human IgG1 heterodimerized by the knobs-into-hole technique.
(§2) The affinity and binding rate constants of an anti-CD3 antibody for an antigen were measured by the single-cycle kinetics method of a surface plasmon resonance assay using Biacore™-T200 (GE Healthcare Japan). HBS-EP+(GE Healthcare Japan) was used for the running buffer, and an amine coupling kit (GE Healthcare Japan) was used to covalently bind human CD3 to the CM4 chip (carboxymethyl dextran-coated chip). The anti-CD3 antibody used as the analyte was prepared at 5 and […] using HBS-EP+. Measurements were carried out by first injecting each of the 5- and 20-g/mL anti-CD3 antibody solutions for three minutes continuously at a flow rate of 20 L/min to allow reaction to take place. Then, the solution was switched to HBS-EP+ and the dissociation phase was measured for 3 minutes. After completion of the dissociation phase measurement, the sensor chip was regenerated by washing with 10 mM Gly-HCl at pH 1.5. Measurement at the concentration of 0 was carried out by performing each of the three-minute HBS-EP+ injections twice successively to allow reaction to take place, and then switching to HBS-EP+ to measure the dissociation phase for 3 minutes. After completion of the dissociation phase measurement, the sensor chip was regenerated by washing with 10 mM Gly-HCl at pH 1.5. A data analysis software exclusively for Biacore, Biacore T200 Evaluation Software Version 1.0, was used to perform kinetic analyses to calculate the binding rate constant (ka), dissociation rate constant (kd), and the rate constant ratio from the obtained sensorgrams.

[2] = biological target: human CD3 (soluble human CD3ε chain) (Homo sapiens, UniProt P07766); assay: Affinity for human CD3 by surface plasmon resonance (Biacore T200); assay type: binding; settings: for Kd: soluble human CD3ε chain, Table 12
Sequence of human CD3 (soluble human CD3ε chain) (P07766 23-126 limits assumed): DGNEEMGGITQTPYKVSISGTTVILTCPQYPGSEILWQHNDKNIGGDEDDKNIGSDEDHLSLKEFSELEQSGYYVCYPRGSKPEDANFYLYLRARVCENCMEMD
Protocol: as §1, §2
CDR and FR were determined according to the Kabat definition (Kabat numbering).
First, point mutations were introduced into FR1, FR2, FR3, CDR1, CDR2, and CDR3 of the humanized anti-human CD3ε chain antibody sequence produced in Reference Example 2, hCE115HA-ERY27_HE (SEQ ID NO: 55), to prepare modified antibodies. Next, the affinity of these modified antibodies for the soluble human CD3ε chain was determined.

[3] = test system: SK-HEP-1/hGPC3 (SK-pca31a) xenograft tumor; assay: In vivo drug efficacy, NOD scid/T cell-injected model, SK-pca31a; design: species or system NOD scid mice; settings: 5 mg/kg once through the tail vein, compared to the vehicle-administered group
Protocol: Methods called an NOD scid/T cell-injected model, a humanized NOG mouse model, and a human CD3εδγ gene-modified mouse model were used in the in vivo drug efficacy evaluation. Assay using an NOD scid/T cell-injected model was performed as follows. […] T cells expanded by culturing human PBMCs in vitro were injected into the NOD scid mice with confirmed tumor establishment. The mice were treated by administering bispecific antibody-38 and bispecific antibody-30, -31, -32, or -33. Assay using a humanized NOG mouse model was performed as follows. CD34-positive hematopoietic stem cells derived from umbilical cord blood were transplanted into NOG mice by tail vein injection. Human T cells are constantly supplied in the mice, which are called humanized NOG mice. The PC-10 cell line was transplanted into humanized NOG mice. The humanized NOG mice with confirmed establishment of PC-10 tumor were treated by administering antibody-38. Assay using a human CD3εδγ gene-modified mouse model was performed as follows. Cells of mouse-derived cell line forced to express human GPC3 were transplanted into a human CD3εδγ gene-modified mouse model, which had been prepared according to Reference Example 10. The human CD3εδγ gene-modified mice with confirmed tumor establishment were treated by administering antibody-38.
The drug efficacy evaluation studies for bispecific antibody-38, and bispecific antibody-30, -31, -32, and -33 in NOD scid/T cell-injected model were performed as follows. T cell expansion culture was performed using PBMCs separated from blood collected from a healthy person and T cell activation/expansion kit/human. Each of human cancer cell lines (MKN74, FU-97, SNU-1, SCC152, KYSE70, PC-10, HuH-7, TOV-21G, RMG-1, and SK-pca31a (SK-HEP-1/hGPC3)) was mixed with Matrigel™ Basement Membrane Matrix, and transplanted subcutaneously into NOD scid mice (CLEA Japan). An in vivo-passaged line (STM-03) was transplanted as about 2-mm tumor tissue cubes subcutaneously into NOD scid mice (CLEA Japan). The day of transplantation was defined as Day 0. On the day before transplantation, anti-asialo GM1 antibody (Wako Pure Chemical Industries) was administered intraperitoneally at 0.2 mg/mouse. When tumor was clearly established after transplantation, the mice were separated into groups based on tumor size and body weight. Then, anti-asialo GM1 antibody was administered intraperitoneally at 0.2 mg/mouse again. On the following day, T cells obtained by the aforementioned expansion culture were transplanted intraperitoneally at 1.5×10^7 to 3×10^7 cells/mouse. About two to five hours after T cell transplantation, antibody-38 was administered at 1 mg/kg (MKN74, FU-97, SNU-1, SCC152, KYSE70, PC-10, HuH-7, TOV-21G, RMG-1, and STM-03) through the tail vein. The administration was performed only once. […]

[4] = single-arm antibody, single-cycle kinetics

T1 sequence (P07766 23-126 limits assumed): as above

B1: rCE115H/rCE115L single-arm antibody (antibody, human IgG1, V domains shown)
VH: EVQLVETGGSLVQPGKSLKLTCATSGFTFSNAWMHWVRQSPEKQLEWVAQIKAKSNNYATYYAESVKGRFTISRDDSKSNIYLQMNSLKEEDTAVYYCRYVHYGAYYGVDAWGQGTSVTVSS
VL: DVVMTQTPVSMSVSLGGQVSISCRSSQSLVHNNGNTYVSWYIQKPSQSPQLLIYKVSNRFSGISDRFSGSGSGTDFTLKISRVEPDDLGVYYCGQGTQDPYTFGAGTKLELK
notes: single Fab on human IgG1 Fc heterodimerized by knobs-into-hole; also called rCE116H/rCE115L
Kd [1]: 100 nM
koff [1]: 0.006 s⁻¹
kon [1]: 59000 M⁻¹ s⁻¹
Affinity for human CD3 ka [2, 4]: 59000 M⁻¹ s⁻¹
Affinity for human CD3 kd [2, 4]: 0.006 s⁻¹

B2: antibody-30: optimized anti-human CD3ε chain and anti-human GPC3 bispecific antibody (antibody)
heavy 1: QVQLVESGGGLVQPGRSLRLSCAASGFTFSNAWMHWVRQAPGKGLEWVAQIKDKSQNYATYYAESVKGRFTISRDDSKNSLYLQMNSLKTEDTAVYYCRYVHYAAGYGVDAWGQGTTVTVSSASTKGPSVFPLAPCSRSTSESTAALGCLVKDYFPEPVTVSWNSGALTSGVHTFPAVLQSSGLYSLSSVVTVPSSSLGTKTYTCNVDHKPSNTKVDKRVESKYGPPCPPCPAPEFRGGPKVFLFPPKPKDTLMISRTPEVTCVVVDVSQEDPEVQFNWYVDGVEVHNAKTKPREEQFASTYRVVSVLTVLHQDWLNGKEYKCKVSNKGLPSSIEKTISKAKGQPREPQVYTLPPSQKEMTKNQVSLTCLVKGFYPSDIAVEWESNGQPENNYKTTPPVLDSDGSFFLYSKLTVDKSRWQEGNVFSCSVMHEALHNRYTQKSLSLSP
heavy 2: QVQLVQSGAEVKKPGASVTVSCKASGYTFTDYEMHWVRQAPGEGLEWMGAIDGETPDTAYSEKFKGRVTLTADKSTSTAYMELSSLTSEDTAVYYCTRFYSYTYWGQGTLVTVSSASTKGPSVFPLAPCSRSTSESTAALGCLVKDYFPEPVTVSWNSGALTSGVHTFPAVLQSSGLYSLSSVVTVPSSSLGTQTYTCNVDHKPSNTKVDKRVESKYGPPCPPCPAPEFRGGPKVFLFPPKPKDTLMISRTPEVTCVVVDVSQEDPEVQFNWYVDGVEVHNAKTKPREEQFASTYRVVSVLTVLHQDWLNGKEYKCKVSNKGLPSSIEKTISKAKGQPREPQVYTLPPSQEEMTKNQVSLTCLVKGFYPSDIAVEWESNGQPENNYKTTPPVLDSDGSFFLYSKLTVDKSRWQEGNVFSCSVMHEALHNHYTQESLSLSP
light: DIVMTQSPLSLPVTPGEPASISCRSSQPLVHSNRNTYLHWYQQKPGQAPRLLIYKVSNRFSGVPDRFSGSGSGTDFTLKISRVEAEDVGVYYCGQGTQVPYTFGQGTKLEIKRTVAAPSVFIFPPSDEQLKSGTASVVCLLNNFYPREAKVQWKVDNALQSGNSQESVTEQDSKDSTYSLSSTLTLSKADYEKHKVYACEVTHQGLSSPVTKSFNRGEC
anti-tumor effect [3]: evident anti-tumor effect

B3: antibody-32: optimized anti-human CD3ε chain and anti-human GPC3 bispecific antibody (antibody)
heavy 1: B2 heavy 1 with L11V, R16G, D75A, L81I, A111I
heavy 2: B2 heavy 2 with V37I, A40P, M48I, E54P
light: B2 light
anti-tumor effect [3]: evident anti-tumor effect

B4: antibody-33: optimized anti-human CD3ε chain and anti-human GPC3 bispecific antibody (antibody)
heavy 1: B2 heavy 1
heavy 2: B2 heavy 2 with V37I, A40P, M48I, E54P
light: B2 light
anti-tumor effect [3]: evident anti-tumor effect

B5: antibody-31: optimized anti-human CD3ε chain and anti-human GPC3 bispecific antibody (antibody)
heavy 1: B2 heavy 1 with L11V, R16G, D75A, L81I, A111I
heavy 2: B2 heavy 2
light: B2 light
anti-tumor effect [3]: evident anti-tumor effect

B6: CE115HA122-E22Hh//-Hi-Kn010G3/L0000-k0: modified anti-CD3 antibody (antibody)
heavy: QVQLVESGGGVVQPGRSLRLSCAASGFTFSNAWMHWVRQAPGKGLEWVANIKAKSNNYATYYAESVKGRFTISRDDSKNSLYLQMNSLKTEDTAVYYCRYVHYGAYYGVDAWGQGTTVTVSSASTKGPSVFPLAPSSKSTSGGTAALGCLVKDYFPEPVTVSWNSGALTSGVHTFPAVLQSSGLYSLSSVVTVPSSSLGTQTYICNVNHKPSNTKVDKKVEPKSCDKTHTCPPCPAPEAAGGPSVFLFPPKPKDTLMISRTPEVTCVVVDVSHEDPEVKFNWYVDGVEVHNAKTKPREEQYASTYRVVSVLTVLHQDWLNGKEYKCKVSNKALPAPIEKTISKAKGQPREPQVYTLPPSRCELTKNQVSLSCAVKGFYPSDIAVEWESNGQPENNYKTTPPVLDSDGSFFLVSKLTVDKSRWQQGNVFSCSVMHEALHNHYTQKSLSLSPDYKDDDDK
light: B2 light with P28S
Kd [2]: 42.8 nM

B7: antibody-6: anti-human CD3ε chain and anti-human GPC3 bispecific antibody (antibody)
heavy: B6 heavy
light: B2 light with P28S
chain 1: DIVMTQSPLSLPVTPGEPASISCRSSQSLVHSNRNTYLHWYQQKPGQAPRLLIYKVSNRFSGVPDRFSGSGSGTDFTLKISRVEAEDVGVYYCSQNTHVPPTFGQGTKLEIKSSASTKGPSVFPLAPSSKSTSGGTAALGCLVKDYFPEPVTVSWNSGALTSGVHTFPAVLQSSGLYSLSSVVTVPSSSLGTQTYICNVNHKPSNTKVDKKVEPKSCDKTHTCPPCPAPEAAGGPSVFLFPPKPKDTLMISRTPEVTCVVVDVSHEDPEVKFNWYVDGVEVHNAKTKPREEQYASTYRVVSVLTVLHQDWLNGKEYKCKVSNKALPAPIEKTISKAKGQPREPQVCTLPPSRDELTKNQVSLWCLVKGFYPSDIAVEWESNGQPENNYKTTPPVLDSDGSFFLYSKLTVDKSRWQQGNVFSCSVMHEALHNHYTQKSLSLSPHHHHHHHH
chain 2: QVQLVQSGAEVKKPGASVKVSCKASGYTFTDYEMHWIRQPPGQGLEWIGAIDPKTGDTAYSQKFKGRVTLTADKSTSTAYMELSSLTSEDTAVYYCTRFYSYTYWGQGTLVTVSSASVAAPSVFIFPPSDEQLKSGTASVVCLLNNFYPREAKVQWKVDNALQSGNSQESVTEQDSKDSTYSLSSTLTLSKADYEKHKVYACEVTHQGLSSPVTKSFNRGEC
Kd [2]: 16.9 nM
